Measured values as given in patent publication US20190282704A1.
Changes are numbered by the printed parent chain. Numbers in names are those of the source.

B1: Feline 11E12 1.1 K46Q (antibody, V domains shown)
VH: QVLLVQSGAEVKKPGASVKIFCKASGYSFTYYDINWLRQAPEQGLEWMGWIFPGDGGTKYNETFKGRLTLTADTSTNTVYMELSSLRSADTAMYYCARGGTSVIRDAMDYWGQGALVTVSS
VL: EIQMTQSPSSLSASPGDRVTITCRASESVDNYGISFMHWYQQKPGQVPKLLIYRASNLESGVPSRFSGSGSGTDFTLTISSLEPEDAATYYCQQSNKDPLTFGQGT
B2: Feline 15H05_VH1 mouse VL (antibody, V domains shown)
VH: QVLLVQSGAEVRTPGASVKIFCKASGYSFTSYTIHWLRQAPAQGLEWMGNINPTSGYTENNQRFKDRLTLTADTSTNTAYMELSSLRSADTAMYYCARWGFKYDGEWSFDVWGAGTTVTVSS
VL: DIQMNQSPSSLSASLGDTITVTCRASQGISIWLSWYQQKPGNIPKVLINKASNLHIGVPPRFSGSGSGTHFTLTITSLQPEDIATYYCLQSQTYPLTFGGGTKLEIN
B3: Feline 15H05 1.1 FW1_3 (antibody, V domains shown)
VH: B2 VH
VL: B2 VL with N42K, I43V, V46L, N49Y, N107K
B4: Feline 15H05 1.1 (antibody, V domains shown)
VH: B2 VH
VL: EIQMTQSPSSLSASPGDRVTITCRASQGISIWLSWYQQKPGKVPKLLIYKASNLHIGVPSRFSGSGSGTDFTLTISSLEPEDAATYYCLQSQTYPLTFGGGTKLEIK
B5: Feline 15H05 1.1 FW1 (antibody, V domains shown)
VH: B2 VH
VL: B4 VL with E1D, T5N, P15L, R18T, V19I, I21V
B6: Feline 15H05 1.1 FW3 (antibody, V domains shown)
VH: B2 VH
VL: B4 VL with S60P, D70H, S76T, E79Q, A83I
B7: Feline 15H05 VH2 mouse VL (antibody, V domains shown)
VH: B2 VH with S28G, L37V, A40S
VL: B2 VL
B8: Feline 15H05 1.1_FW1_2 (antibody, V domains shown)
VH: B2 VH
VL: B2 VL with P60S, H70D, T76S, Q79E, I83A, N107K
B9: Feline 15H05_VH3 mouse VL (antibody, V domains shown)
VH: B2 VH with T13K, A42E
VL: B2 VL
B10: Feline 15H05 2.2 (antibody, V domains shown)
VH: B2 VH with S28G, L37V, A40S
VL: EITMTQSPGSLAGSPGQQVTMNCRASQGISIWLSWYQQKPGQHPKLLIYKASNLHIGVPDRFSGSGSGTDFTLTISNLQAEDVASYYCLQSQTYPLTFGGGTKLEIK
B11: Feline 15H05 1.2 (antibody, V domains shown)
VH: B2 VH
VL: B10 VL
B12: Feline 15H05 1.1 FW2 (antibody, V domains shown)
VH: B2 VH
VL: B4 VL with K42N, V43I, L46V, Y49N
B13: Feline 15H05 1.3 (antibody, V domains shown)
VH: B2 VH
VL: EVVLTQSSAFLSRTLKEKATITCRASQGISIWLSWYQQKPNQAPKLLVKKASNLHIGAPSRFSGSGSGTDFTLTISSPEPEDAATYYCLQSQTYPLTFGGGTKLGDQ
B14: Feline 15H05 3.1 (antibody, V domains shown)
VH: B2 VH with T13K, A42E
VL: B4 VL
B15: Feline 15H05 2.1 (antibody, V domains shown)
VH: B2 VH with S28G, L37V, A40S
VL: B4 VL
B16: Feline 15H05 1.1 FW2_3 (antibody, V domains shown)
VH: B2 VH
VL: B2 VL with D1E, N5T, L15P, T18R, I19V, V21I, N107K
B17: Feline 15H05 3.3 (antibody, V domains shown)
VH: B2 VH with T13K, A42E
VL: B13 VL
B18: Feline 15H05 2.3 (antibody, V domains shown)
VH: B2 VH with S28G, L37V, A40S
VL: B13 VL
B19: Feline 15H05 1.1 K42N (antibody, V domains shown)
VH: B2 VH
VL: B4 VL with K42N
B20: Feline 15H05 1.1 V43I (antibody, V domains shown)
VH: B2 VH
VL: B4 VL with V43I
B21: Feline 15H05 1.1 L46V (antibody, V domains shown)
VH: B2 VH
VL: B4 VL with L46V
B22: Feline 15H05 1.1 K42N_V43I (antibody, V domains shown)
VH: B2 VH
VL: B4 VL with K42N, V43I
B23: Feline 15H05 1.1 Y49N (antibody, V domains shown)
VH: B2 VH
VL: B4 VL with Y49N
B24: ZTS-361 (antibody)
heavy: QVLLVQSGAEVRTPGASVKIFCKASGYSFTSYTIHWLRQAPAQGLEWMGNINPTSGYTENNQRFKDRLTLTADTSTNTAYMELSSLRSADTAMYYCARWGFKYDGEWSFDVWGAGTTVTVSSASTTAPSVFPLAPSCGTTSGATVALACLVLGYFPEPVTVSWNSGALTSGVHTFPAVLQASGLYSLSSMVTVPSSRWLSDTFTCNVAHPPSNTKVDKTVRKTDHPPGPKPCDCPKCPPPEAAGAPSIFIFPPKPKDTLSISRTPEVTCLVVDLGPDDSDVQITWFVDNTQVYTAKTSPREEQFNSTYRVVSVLPILHQDWLKGKEFKCKVNSKSLPSPIERTISKAKGQPHEPQVYVLPPAQEELSRNKVSVTCLIKSFHPPDIAVEWEITGQPEPENNYRTTPPQLDSDGTYFVYSKLSVDRSHWQRGNTYTCSVSHEALHSHHTQKSLTQSPGK
light: EIQMTQSPSSLSASPGDRVTITCRASQGISIWLSWYQQKPGNIPKVLINKASNLHIGVPSRFSGSGSGTDFTLTISSLEPEDAATYYCLQSQTYPLTFGGGTKLEIKRSDAQPSVFLFQPSLDELHTGSASIVCILNDFYPKEVNVKWKVDGVVQNKGIQESTTEQNSKDSTYSLSSTLTMSSTEYQSHEKFSCEVTHKSLASTLVKSFQRSECQRE

target: canine IL-31 (Canine_IL31) (canine); assay: SPR (Biacore), immobilised IL-31, 1:1 fit
Sequence (chain, as listed by the source limits assumed, form in doubt): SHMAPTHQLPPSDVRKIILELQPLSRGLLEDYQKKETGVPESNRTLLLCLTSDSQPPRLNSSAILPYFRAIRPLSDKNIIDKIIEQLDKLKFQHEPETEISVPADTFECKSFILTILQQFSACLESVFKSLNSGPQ

Row | Kd [nM] | koff [s⁻¹] | kon [M⁻¹ s⁻¹] | Binder
1 | 1.91 | 8.85e-05 | 46400 | B1
2 | 0.00246 | 2.66e-07 | 108000 | B2
3 | 0.00436 | 2.88e-08 | 6590 | B3
4 | 0.00504 | 1.36e-07 | 27000 | B4
5 | 813 | 0.0156 | 19200 | B5
6 | 0.13 | 3.91e-07 | 3000 | B6
7 | 2.22 | 0.000379 | 171000 | B7
8 | 0.263 | 3.82e-06 | 6910 | B8
9 | 0.00264 | 2.64e-07 | 100000 | B9
10 | 0.393 | 1.09e-05 | 27700 | B10
11 | 3.48 | 0.000115 | 33000 | B11
12 | 0.000431 | 1.66e-07 | 384000 | B12
13 | 6.38 | 0.00019 | 29700 | B13
14 | 0.795 | 2.11e-05 | 26500 | B14
15 | 1.65 | 0.000866 | 525000 | B15
16 | 214 | 0.00193 | 9050 | B16

target: wildtype feline IL-31 (Feline_IL31_wildtype) (feline); assay: SPR (Biacore), immobilised IL-31, 1:1 fit
Sequence (chain, as listed by the source limits assumed, form in doubt): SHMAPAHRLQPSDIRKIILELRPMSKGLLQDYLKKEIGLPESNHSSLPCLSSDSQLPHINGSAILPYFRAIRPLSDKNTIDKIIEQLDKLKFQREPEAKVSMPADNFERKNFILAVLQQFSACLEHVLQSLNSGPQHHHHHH

Row | Kd [nM] | koff [s⁻¹] | kon [M⁻¹ s⁻¹] | Binder
17 | 12.6 | 0.000145 | 11500 | B1
18 | 0.168 | 2.2e-05 | 131000 | B2
19 | 0.0674 | 3.02e-05 | 448000 | B3
20 | 13.5 | 0.00131 | 97100 | B4
21 | 564 | 0.00286 | 5060 | B5
22 | 0.0564 | 1.21e-05 | 214000 | B6
23 | 1.61 | 5.47e-05 | 34000 | B7
24 | 0.887 | 6.7e-06 | 7560 | B8
25 | 0.177 | 1.57e-05 | 88900 | B9
26 | 11.6 | 0.000886 | 76300 | B17
27 | 1.57 | 0.000535 | 341000 | B18
28 | 2.15 | 0.00195 | 905000 | B10
29 | 104 | 0.00147 | 14100 | B11
30 | 0.065 | 2.49e-05 | 383000 | B12
31 | 86.4 | 0.00328 | 38000 | B13
32 | 37.1 | 0.00166 | 44700 | B14
33 | 6770 | 0.011 | 1630 | B19
34 | 13.6 | 0.000401 | 29400 | B20
35 | 22.3 | 0.00465 | 208000 | B15
36 | 123 | 0.00116 | 9490 | B16
37 | 22.8 | 0.000811 | 35500 | B21
38 | 9.42 | 0.0022 | 234000 | B22
39 | 39.5 | 0.00095 | 24000 | B23
40 | 0.474 | 2.18e-05 | 46000 | B24
